Test [1] deals with T1, recombinant human CD22 (labeled CD22 used in flow cytometry of yeast) (human, UniProt P20273 20-687, limits assumed, fluorescent label, not specified).
T1 construct: also called fluorescently tagged antigen
In words: flow cytometry of yeast-displayed scFv with decreasing amounts of labeled CD22. The method, then: After electroporation, the resulting mutant library was then grown overnight at 30° C. for 16 hours in SDCAA medium and then switched into SGCAA medium at 30° C. for another 16 hours. The mutant library was then sorted through MACS (immunomagentic column, Miltenyi Biotec) with CD22-Fc as the capture antigen to downsize the library and to increase the population of mutants that could bind to CD22-Fc. The strongest binders were then selected by double staining the pools with Anti-c-Myc-Alexa 488 and […]/Anti-Hu-Fc and selecting for the binders that had the highest binding affinities as well as c-Myc expression levels. […] Binding affinities were estimated by flow cytometry of yeast pools using decreasing amounts of labeled CD22.

Test [2] has as its target T2, CD22 expressed on cells (CHOK1-CD22, K562-CD22, Raji, Reh) (human, UniProt P20273 20-847).
T2 construct: whole, on cells; also called SIGLEC-2; Leu14
As to the kind of experiment: yeast display cell panning on CHOK1 cells transfected with CD22. As for the experimental part:
The same ScFv starting material as for phage display was also incorporated into a yeast ScFv display system. To supplement phage-based scFv analysis, yeast libraries expressing the human scFv library were also screened. To enrich the yeast expressing scFvs that bind to both the recombinant CD22-Fc and the […] expressed on the cell surface of the CHOK1 cells, cell panning on CHOK1 transfected with CD22 cells was performed. For the first round of panning on the cell surface, two days prior to panning, the CHOK1-CD22 cells were seeded into 6-well plates and grown to 50% confluency in F12 K medium. 5×10⁷ yeast cells were then washed 2× with PBSA buffer and resuspended into 3 mL F12 K medium, and then gently added dropwise to the CHOK1-CD22 cells. […] The cell mix containing both the yeast and CHOK1 cells were then inoculated into 10 mL SDCAA medium and amplified overnight at 30° C. and then induced in SGCAA medium at 30° C. for 16 hours. For the second round of cell panning, a similar protocol as above was performed, but more stringent wash conditions were used. […] Binder sequences were incorporated into CART constructs as described in Example 2, infra, in a series of in vitro CART functional assays.

Substitutions are numbered along the chain they refer to.

B1: CD22-specific binder (scFv1) 16P (scFv)
scFv: QVQLQQSGPGLVKPSQTLSLTCAISGDSVSSNSAAWNWIRQSPSRGLEWLGRTYYRSKWYNDYAVSVKSRITINPDTSKNQFSLQLNSVTPEDTAVYYCAQEVQPHDAFDIWGQGTMVTVSSGGGGSGGGGSGGGGSDIQMTQSPSSVSASVGDKVTITCRASQDVSGWLAWYQQKPGLAPQLLIFGASTLQGEVPSRFSGSGSGTDFTLTISSLQPEDFATYYCQQAKNFPYTFGQGTKLEIKR
notes: also called founder clone
As to B1, the EC50 in test [1] was found to be 0.5 µg/mL.

B2: CD22-specific binder (scFv3) 25P (scFv)
scFv: QVQLQQSGPGLVKPSQTLSLTCAISGDSVSSNSAAWNWIRQSPSRGLEWLGRTYYRSKWYNDYAVSVKSRITINPDTSKNQFSLQLNSLTPEDTAVYYCAREHQNEAAFDIWGQGTMVTVSSGGGGSGGGGSGGGGSQSVLTQPPSASGTPGQRVTISCSGGGSNIGTNTASWYQQLPGTAPKLLIYRNTQRPSGIPDRFSGSKSGTSASLAISGLQSEDEADYYCAAWDDSLNGYVFGAGTQLTVLG
notes: Lambda light chain
With B2, the binding result in test [2] is on record as “binds”.

B3: CD22-specific binder (scFv18) 16P15 (scFv)
scFv: QVQLQQSGPGLVKPSQTLSLTCAISGDSVSSNSAAWNWIRQSPSRGLEWLGRTYYRSKWYNDYAVSVKSRITINPDTSKNQFSLQLNSVTPEDTAVYYCAQEVEPHDALDIWGQGTMVTVSSGGGGSGGGGSGGGGSDIQMTQSPSSVSASVGDKVTITCRASQDVSGWLAWYQQKPGLAPQLLIFGASTLQGEVPSRFSGSGSGTDFTLTISSLQPEDFATYYCQQAKYFPYTFGQGTKLEIK
As to B3, in test [1], the EC50 is less than 0.01 µg/mL.

B4: CD22-specific binder (scFv8) 16P20 (scFv)
scFv: B3 scFv
With B4, in test [1], the EC50 was less than 0.01 µg/mL.

B5: CD22-specific binder (scFv14) 16P1 (scFv)
scFv: B3 scFv with A23D, V103I, L109F, G113D, D138V, F186S, T190S, E194G
For B5, the EC50 in test [1] is less than 0.01 µg/mL.

B6: CD22-specific binder (scFv12) 16P17 (scFv)
scFv: B3 scFv with P14H, L109F, S149Y, F186S
B6: the EC50 in test [1] was less than 0.01 µg/mL.

B7: CD22-specific binder (scFv9) 16P2 (scFv)
scFv: B3 scFv with S78F, Q140K
As to B7, the EC50 in test [1] is less than 0.01 µg/mL.

B8: CD22-specific binder (scFv10) 16P6 (scFv)
scFv: B3 scFv with E104Q, H106D, L109F, V118I, F186S, E194G, Y230N
With B8, in test [1], the EC50 was less than 0.01 µg/mL.

B9: CD22-specific binder (scFv11) 16P10 (scFv)
scFv: B3 scFv with H106Q, L109F, Q237P
As to B9, the EC50 in test [1] was less than 0.01 µg/mL.

B10: CD22-specific binder (scFv13) 16P20v2 (scFv)
scFv: B3 scFv with E104Q, H106D, L109F, F186S, Y230N
Take B10: the EC50 in test [1] was less than 0.01 µg/mL.

B11: CD22-specific binder (scFv17) 16P13 (scFv)
scFv: B3 scFv with D27N, H106Q, L109F, S202G
For the molecule B11, in test [1], the EC50 is less than 0.01 µg/mL.

B12: CD22-specific binder (scFv16) 16P8 (scFv)
scFv: B3 scFv with N61T, S69N, H106Q, L109F, Q237R
For B12, the EC50 in test [1] was less than 0.01 µg/mL.

B13: CD22-specific binder (scFv15) 16P3v2 (scFv)
scFv: B3 scFv with P14H, T21A, E104Q, H106Q, S147F, T157I, F186S
B13: the EC50 in test [1] was less than 0.01 µg/mL.

B14: CD22-specific binder (scFv7) 16P16 (scFv)
scFv: B3 scFv with S78F, Q140K
For B14, in test [1], the EC50 is less than 0.01 µg/mL.

B15: CD22-specific binder (scFv6) 16P3 (scFv)
scFv: B3 scFv with V2I, E104Q, H106D, F186S, Y230N
B15: in test [1], the EC50 is less than 0.01 µg/mL.

B16: CD22-specific binder (scFv5) 12s (scFv)
scFv: QVQLQQSGPGLVKPSQTLSLTCAISGDSVSSNSAAWNWIRQSPSRGLEWLGRTYYRSKWYNDYAVSVKSRITINPDTSKNQFSLQLNSVTPEDTAVYYCAREGDDALDIWGQGTMVTVSSGGGGSGGGGSGGGGSDIQMTQSPSSLSASVGDRVTITCRASQSISHFLNWYQQKPGTAPKLLITTASGLGSGVPSRFSGSGSGTDFTLTINSLQPEDLATYYCQQSYTTPLTFGGGTKLEIKR
As to B16, the binding result in test [2] is on record as “binds”.

Values taken from patent US20200155661A1 (LENTIGEN TECHNOLOGY, published 2020).
